Key:
human LILRA4 = molecular target: T1, human LILRA4 (human, UniProt P59901 24-499); assay: FACS, 293F-hLILRA4 cells
T1 construct: whole, on cells; also called hLILRA4

human LILRA2 = molecular target: T2, human LILRA2 (human, UniProt Q8N149 24-483); assay: FACS, 293F-hLILRA2 cells
T2 construct: whole, on cells; also called hLILRA2

human LILRA1 = molecular target: T3, human LILRA1 (human, UniProt O75019 17-489); assay: FACS, 293F-hLILRA1 cells
T3 construct: whole, on cells; also called hLILRA1
T3 sequence (O75019 17-489): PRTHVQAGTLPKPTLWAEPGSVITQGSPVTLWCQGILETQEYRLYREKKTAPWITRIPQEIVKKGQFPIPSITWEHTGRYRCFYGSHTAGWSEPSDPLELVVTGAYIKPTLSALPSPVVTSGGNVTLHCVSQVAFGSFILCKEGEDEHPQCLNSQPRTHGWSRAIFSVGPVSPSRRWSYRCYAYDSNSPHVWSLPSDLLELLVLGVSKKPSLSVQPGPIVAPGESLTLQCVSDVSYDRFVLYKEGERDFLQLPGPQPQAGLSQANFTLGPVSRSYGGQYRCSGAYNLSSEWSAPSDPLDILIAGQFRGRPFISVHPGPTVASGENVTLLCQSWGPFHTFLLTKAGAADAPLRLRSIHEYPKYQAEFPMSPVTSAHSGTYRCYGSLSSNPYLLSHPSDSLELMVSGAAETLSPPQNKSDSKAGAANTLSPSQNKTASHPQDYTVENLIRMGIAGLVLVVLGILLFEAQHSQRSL

human LILRA3 = molecular target: T4, human LILRA3 (human, UniProt Q8N6C8 24-439); assay: FACS, 293F-hLILRA3 cells
T4 construct: whole, on cells; also called hLILRA3
T4 sequence (Q8N6C8 24-439): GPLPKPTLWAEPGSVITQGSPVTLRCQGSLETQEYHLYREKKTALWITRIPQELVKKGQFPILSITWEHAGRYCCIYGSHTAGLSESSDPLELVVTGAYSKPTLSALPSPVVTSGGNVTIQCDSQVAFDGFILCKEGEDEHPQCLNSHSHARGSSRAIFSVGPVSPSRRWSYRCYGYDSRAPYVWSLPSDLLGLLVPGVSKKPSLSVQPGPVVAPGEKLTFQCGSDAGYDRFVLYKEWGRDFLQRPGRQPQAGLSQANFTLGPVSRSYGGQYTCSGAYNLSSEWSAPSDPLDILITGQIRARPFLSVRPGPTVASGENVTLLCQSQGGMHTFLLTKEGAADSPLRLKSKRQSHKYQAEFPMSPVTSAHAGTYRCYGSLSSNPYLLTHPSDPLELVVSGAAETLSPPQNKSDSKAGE

human LILRB1 = molecular target: T5, human LILRB1 (human, UniProt Q8NHL6 24-650); assay: FACS, 293F-hLILRB1 cells
T5 construct: whole, on cells; also called hLILRB1
T5 sequence (Q8NHL6 24-650): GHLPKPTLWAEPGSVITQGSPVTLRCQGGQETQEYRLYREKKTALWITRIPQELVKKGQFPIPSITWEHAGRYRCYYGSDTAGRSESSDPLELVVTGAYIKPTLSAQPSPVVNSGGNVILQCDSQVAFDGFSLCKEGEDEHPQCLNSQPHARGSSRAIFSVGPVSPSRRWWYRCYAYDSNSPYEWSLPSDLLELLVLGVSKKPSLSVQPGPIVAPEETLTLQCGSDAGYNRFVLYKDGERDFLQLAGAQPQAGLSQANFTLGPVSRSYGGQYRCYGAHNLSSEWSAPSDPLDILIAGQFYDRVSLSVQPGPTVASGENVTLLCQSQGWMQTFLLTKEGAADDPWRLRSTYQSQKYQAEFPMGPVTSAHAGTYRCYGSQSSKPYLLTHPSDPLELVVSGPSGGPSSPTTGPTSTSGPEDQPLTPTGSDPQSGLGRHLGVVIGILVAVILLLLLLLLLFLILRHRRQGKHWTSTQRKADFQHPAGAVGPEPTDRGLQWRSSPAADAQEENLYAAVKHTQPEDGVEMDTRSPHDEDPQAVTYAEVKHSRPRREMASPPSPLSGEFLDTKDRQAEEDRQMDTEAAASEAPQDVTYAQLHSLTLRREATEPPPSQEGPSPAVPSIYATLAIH

human LILRB4 = molecular target: T6, human LILRB4 (human, UniProt Q8NHJ6 22-448); assay: FACS, 293F-hLILRB4 cells
T6 construct: whole, on cells; also called hLILRB4
Method: The subcloning plates were screened by protein or cell-based ELISA, and the subclones with good binding ability were expanded to 24-wells for confirmation tests. The specificity and cross-reactivity of these subclones were confirmed with FACS analysis. […] Fluorescent dye-conjugated secondary antibody was used to detect the binding of the primary antibody with the cells. Median fluorescence intensity (MFI) was measured by FACS analysis. […]

human LILRB3 = molecular target: T7, human LILRB3 (human, UniProt O75022 24-631); assay: FACS, 293F-hLILRB3 cells
T7 construct: whole, on cells; also called hLILRB3
T7 sequence (O75022 24-631): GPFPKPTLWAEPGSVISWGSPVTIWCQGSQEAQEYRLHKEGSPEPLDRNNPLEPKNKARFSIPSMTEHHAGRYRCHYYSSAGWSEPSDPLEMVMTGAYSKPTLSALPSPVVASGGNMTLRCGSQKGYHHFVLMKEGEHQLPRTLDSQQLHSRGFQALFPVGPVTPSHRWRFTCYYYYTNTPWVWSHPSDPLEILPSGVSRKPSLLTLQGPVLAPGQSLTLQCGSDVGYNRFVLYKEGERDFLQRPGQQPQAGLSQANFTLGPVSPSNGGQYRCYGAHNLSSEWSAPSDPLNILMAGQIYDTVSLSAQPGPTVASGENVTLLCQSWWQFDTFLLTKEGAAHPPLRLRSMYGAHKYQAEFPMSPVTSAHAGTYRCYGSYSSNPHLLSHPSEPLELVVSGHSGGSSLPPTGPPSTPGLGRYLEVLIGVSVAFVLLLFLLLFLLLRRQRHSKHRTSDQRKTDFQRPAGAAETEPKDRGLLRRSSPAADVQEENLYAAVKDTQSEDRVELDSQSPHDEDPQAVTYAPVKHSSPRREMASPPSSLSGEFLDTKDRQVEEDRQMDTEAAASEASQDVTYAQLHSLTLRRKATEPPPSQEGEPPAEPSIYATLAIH

human LILRB2 = molecular target: T8, human LILRB2 (human, UniProt Q8N423 22-597); assay: FACS, 293F-hLILRB2 cells
T8 construct: whole, on cells; also called hLILRB2
T8 sequence (Q8N423 22-597): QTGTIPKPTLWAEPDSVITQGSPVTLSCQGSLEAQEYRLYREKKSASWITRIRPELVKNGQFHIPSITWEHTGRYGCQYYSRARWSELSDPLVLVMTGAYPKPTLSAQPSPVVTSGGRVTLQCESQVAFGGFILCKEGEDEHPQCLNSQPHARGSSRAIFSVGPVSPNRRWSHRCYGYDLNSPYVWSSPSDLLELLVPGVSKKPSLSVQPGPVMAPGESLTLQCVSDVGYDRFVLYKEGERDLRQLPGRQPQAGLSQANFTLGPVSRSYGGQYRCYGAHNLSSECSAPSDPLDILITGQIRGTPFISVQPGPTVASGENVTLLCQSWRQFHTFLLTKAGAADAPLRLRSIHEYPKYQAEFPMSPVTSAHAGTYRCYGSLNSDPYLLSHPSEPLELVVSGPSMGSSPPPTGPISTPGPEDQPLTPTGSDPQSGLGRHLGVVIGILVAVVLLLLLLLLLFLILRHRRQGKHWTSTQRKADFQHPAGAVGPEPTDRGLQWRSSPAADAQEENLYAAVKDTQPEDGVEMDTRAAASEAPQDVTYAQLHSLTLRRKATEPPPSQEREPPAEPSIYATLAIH

human LILRB5 = molecular target: T9, human LILRB5 (human, UniProt O75023 24-590); assay: FACS, 293F-hLILRB5 cells
T9 construct: whole, on cells; also called hLILRB5
T9 sequence (O75023 24-590): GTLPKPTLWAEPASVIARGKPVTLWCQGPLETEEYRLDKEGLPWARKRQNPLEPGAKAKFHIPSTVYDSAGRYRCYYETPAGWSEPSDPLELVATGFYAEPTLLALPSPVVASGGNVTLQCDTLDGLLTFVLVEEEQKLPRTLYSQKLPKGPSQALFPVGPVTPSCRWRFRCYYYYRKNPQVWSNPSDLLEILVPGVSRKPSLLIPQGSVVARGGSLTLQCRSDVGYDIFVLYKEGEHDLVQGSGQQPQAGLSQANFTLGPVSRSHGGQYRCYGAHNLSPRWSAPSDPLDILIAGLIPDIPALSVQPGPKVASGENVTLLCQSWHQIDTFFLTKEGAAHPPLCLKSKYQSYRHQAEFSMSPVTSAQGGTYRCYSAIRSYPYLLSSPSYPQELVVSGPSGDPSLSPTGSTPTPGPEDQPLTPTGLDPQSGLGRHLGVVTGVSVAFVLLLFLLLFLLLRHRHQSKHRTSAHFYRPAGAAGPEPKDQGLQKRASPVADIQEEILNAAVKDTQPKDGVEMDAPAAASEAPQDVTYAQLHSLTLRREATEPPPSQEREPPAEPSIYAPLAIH

human LILRA5 = molecular target: T10, human LILRA5 (human, UniProt A6NI73 42-299); assay: FACS, 293F-hLILRA5 cells
T10 construct: whole, on cells; also called hLILRA5
T10 sequence (A6NI73 42-299): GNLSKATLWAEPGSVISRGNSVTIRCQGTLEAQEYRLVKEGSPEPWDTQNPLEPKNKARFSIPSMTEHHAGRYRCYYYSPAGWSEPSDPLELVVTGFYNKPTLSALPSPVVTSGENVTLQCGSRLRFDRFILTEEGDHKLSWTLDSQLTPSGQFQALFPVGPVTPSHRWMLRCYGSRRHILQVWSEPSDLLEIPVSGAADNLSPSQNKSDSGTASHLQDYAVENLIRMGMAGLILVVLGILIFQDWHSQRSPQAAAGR

T2 sequence (Q8N149 24-483): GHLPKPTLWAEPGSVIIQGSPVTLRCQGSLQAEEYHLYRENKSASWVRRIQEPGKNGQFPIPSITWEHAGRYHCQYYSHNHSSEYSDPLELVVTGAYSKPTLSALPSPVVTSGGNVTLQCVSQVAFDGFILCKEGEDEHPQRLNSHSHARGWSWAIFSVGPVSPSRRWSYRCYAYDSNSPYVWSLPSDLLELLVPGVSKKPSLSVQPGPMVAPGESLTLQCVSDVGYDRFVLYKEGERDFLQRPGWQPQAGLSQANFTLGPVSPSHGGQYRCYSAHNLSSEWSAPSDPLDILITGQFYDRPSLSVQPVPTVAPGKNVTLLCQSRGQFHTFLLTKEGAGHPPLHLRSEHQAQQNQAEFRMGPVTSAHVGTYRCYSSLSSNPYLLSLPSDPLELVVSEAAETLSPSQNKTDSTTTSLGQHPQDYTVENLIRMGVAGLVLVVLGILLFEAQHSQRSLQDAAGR
T1 sequence (P59901 24-499): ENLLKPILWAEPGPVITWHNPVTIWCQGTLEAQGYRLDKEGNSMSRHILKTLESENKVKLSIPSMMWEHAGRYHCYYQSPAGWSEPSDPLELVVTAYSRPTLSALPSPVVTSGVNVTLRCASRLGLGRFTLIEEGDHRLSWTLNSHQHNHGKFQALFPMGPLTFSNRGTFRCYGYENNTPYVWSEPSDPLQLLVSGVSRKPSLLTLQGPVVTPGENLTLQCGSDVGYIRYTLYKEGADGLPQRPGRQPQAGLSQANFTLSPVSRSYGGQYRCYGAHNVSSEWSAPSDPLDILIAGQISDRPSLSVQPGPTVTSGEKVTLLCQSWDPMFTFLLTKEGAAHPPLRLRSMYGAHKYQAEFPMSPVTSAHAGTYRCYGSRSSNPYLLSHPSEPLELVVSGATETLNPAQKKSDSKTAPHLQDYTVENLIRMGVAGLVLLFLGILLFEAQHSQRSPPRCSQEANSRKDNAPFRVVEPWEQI

Binder	MFI (human LILRA4) [MFI]	MFI (human LILRA2) [MFI]	MFI (human LILRA1) [MFI]	MFI (human LILRA3) [MFI]	MFI (human LILRB1) [MFI]	MFI (human LILRB4) [MFI]	MFI (human LILRB3) [MFI]	MFI (human LILRB2) [MFI]	MFI (human LILRB5) [MFI]	MFI (human LILRA5) [MFI]
25-E7-A10-H6 (antibody, V domains shown, mouse monoclonal hybridoma antibody) VH: EVQLVESGGGLVQPGGSRKLSCAASGFTFSTFGMHWVRQAPEKGLEWVAYISSGSSTIYYADTVKGRFTISRDNPKNTLFLQMTSLRSEDTAMYYCARSTGTGAMDYWGQGTSVTVSS VL: DIQMTQTTSSLSASLGDRVTISCRASQDISKYLNWYQQKPDGTVKLLIYYTSRLHSGVPSRFSGSGSGTDYSLTISNLEQEDIATYFCQQGNTLPWTFGGGTKLEIK	19.9	21	23.1	20.1	22.5	759	23.1	33.2	16.3	19.9
2-H1-D7-E5-D5 (antibody, V domains shown, mouse monoclonal hybridoma antibody) VH: EVHLVESGGGLVQPGGSRKLSCAASGFTFSSFGMHWVRQPPEKGLEWVAYISSGSSSIYYADTVKGRFTISRDNPKNTLFLQMTSLRSEDTAMYYCARGTGTGAMDYWGQGTSVTVSS VL: DIQMTQTTSSLSASLGDRVTISCRTSQDISNYLNWYQQKPDGTVKLLIYYTSKLHSGVPSRFSGSGSGTDYSLTISNLDQEDIATYFCQQGNTLPWTFGGGTKLEIK	23.7	20	21.9	20	25.2	915	23	31.5	22.6	24.7
10-H9-E3-G3 (antibody, V domains shown, mouse monoclonal hybridoma antibody) VH: EVQRVESGGGLVQPGGSRKLSCAASGFTFSSFGMHWVRQAPEKGLEWVAYISSGSSAMYYADTVKGRFTISRDNPKNTLFLQMTSLRSEDTAMYYCARSDGKGAMDYWGQGTSVTVSS VL: DIQMTQTTSSLSASLGDRVTISCRASQDISNYLNWYQQKPDGTVKLLVYYTSRLHSGVPSRFSGSGSGTDYSLTISNLEQEDIATYFCQQGNTLPWTFGGGTKLEIK	20.7	19.9	21.6	18.3	21	210	22.7	29.5	21.8	25
26-H9-B9-B7 (antibody, V domains shown, mouse monoclonal hybridoma antibody) VH: EVQRVESGGGLVQPGGSRKLSCAASGFTFSSFGMHWVRQAPEKGLEWVAYISSGSSTIYYADTVKGRFTISRDNPKNTLFLQMTSLRSEDTAMYYCARSDGKGAMDYWGQGTSVTVSS VL: DIVMTQSTSSLSASLGDRVTISCRASQDISNYLNWYQQKPDGTVKLLIYYTSRLHSGVPSRFSGSGSGTDYSLTISNLEQEDIATYFCQQGNTLPWTFGGGTKLEIK	19.4	17.9	21.3	19.1	20.8	441	23.6	28.8	19.6	19.6
27-D11-C2-A10 (antibody, V domains shown, mouse monoclonal hybridoma antibody) VH: EVQLVESGGGLVQPGGSRKLSCAASGFTFSVFGVHWVRQAPEKGLEWVAYISSGSNTIHYADTVKGRFTISRDIPKNTLFLQMTSLRSEDTAMYYCARSSGTGAMDYWGQGTSVTVSS VL: DIQMTQSTSSLSASLGDRVSISCRASQDISNYLNWYQQKPDGAVKLLIYYTSRLHSGVPSRFSGSGSGTDYSLTISNLDQEDIATYFCQQGNTLPWTFGGGTKLELK	19.6	17.8	21.6	17.2	20.8	588	19.7	28.3	18.8	17.2
27-G5-E9-B8 (antibody, V domains shown, mouse monoclonal hybridoma antibody) VH: EVQLVESGGGLVQPGGSRKLSCAASGFTFSSFGMHWVRQAPEKGLEWVAYISSGSSTIYYADTVKGRFTISRDNPKNTLFLQMTSLRSEDTAMYYCARSTGTGAMDYWGQGTSVTVSS VL: DIQMTQTTSSLSASLGDSVTFSCRASQDISNYLNWYQQKPDGTVKLLISYTSRLHSGVPSRFSGSGSGTDYSLTISNLEQEDIATYFCQQGNALPWTFGGGTKLEIK		17.7	24	19.5	20.2	213	23.7	25.4	18.7	19.1
48-E11-H7-B5 (antibody, V domains shown, mouse monoclonal hybridoma antibody) VH: EVQLVESGGGLVKPGGSLKLSCAASGFTFSSYAMSWVRQTPEKRLEWVASITIGDDTYYPDSVKGRFTISRDHAKNILYLQVSSLRSEDTAMYSCARGVNSYGSSYRYFDVWGAGTTVTVSS VL: DIVMTQSHKFMSTSVGDRVSITCKASQDVSTAVAWYQQKPGQSPKLLIYWASTRHTGVPDRFTGSGSGTDYTLTISSVQAEDLALYYCQQHYSIPFTFGAGTKLEK	24.3	22.6	25.1	24.1	27.3	2760	26.7	45.8	18.9	359
2-H8-C9-F7-E2 (antibody, V domains shown, mouse monoclonal hybridoma antibody) VH: EVQLQQSGAELVKPGASVKLSCKASGYTFTNYWMHWVKQRPGQGLEWIGEINPSNGRTNYNEKFKSKATLTVDKSSSTAYMQLSSLTSEDSAVYYCARGSLTTVVPFDYWGQGTTLTVSS VL: DIQMTQTPSSLSASLGGKVTITCKASQDINNYIAWYQHKPGKGPRLLIHYTSTLQPGIPSRFSGSGSGRDYSFSISNLEPEDIATYFCLQYDILLTFGGGTKLEK	23	19.7	22.6	21.7	25.4	1710	26.7	28.8	21.6	22.6
42-C8-A12-F3-D11 (antibody, V domains shown, mouse monoclonal hybridoma antibody) VH: EVHLVESGGDLVKPGGSLKLSCAASGFTFSSHGMSWVRQTPDKRLEWVATISSGGIYTYHPDSVKGRFSISRDNAKKTLYLQMSSLKSEDTGIYYCTRGQVGNWYFDVWGAGTTVTVSS VL: DIVITQSPAIMSASPGEKVTINCSASSSVSYMHWFQQTPGTSPKLWIYSTSNLASGVPARFSGSGSGTFYSLTISRMEAEDAATYYCQQRSSYPLTFGAGTKLELK	27.2	28.1	27.3	24.5	29.6	1290	602	34.5	22.2	27.9
4-E6-E4-B12 (antibody, V domains shown, mouse monoclonal hybridoma antibody) VH: EVQLKESGAELVKPGASVKLSCKASGYTFTSHWMHWVKQRPGQGLEWIGEINPSNGRTNYNEKFTSKATLTVDQSSSTAYMQLSSLTSEDSAVYYCARGNLTTVVPFDYWGQGTALTVSS VL: DIVMTQSPSSLSASLGGKVTITCKASQDINKFIAWYQHKPGKGPRLLIHFTSTLQPGIPSRFSGSGSGRDYSFSISNLEPEDIATYFCLQYDLLLTFGGGTKLEIK	23.2	21.9	24.4	23.7	23.6	1530	27.1	58	21.4	32.6
7-B4-C1-C9 (antibody, V domains shown, mouse monoclonal hybridoma antibody) VH: EVQLQQSGTELVKPGASVKLSCKASGYTFTNYWMHWVKQRPGQGLEWIGEINPSNGRTNYNEKFKTKATLTVDKSSSTAYMQLSSLTSEDSAVYYCARSTYYGYDWYFDVWGAGTTVTVSS VL: DIVLTQSPSSMYASLGERVTITCKASQDINSYLSWFQQKPGKSPKTLIYRANRLLDGVPSRFSGGGSGQDYSLTISSLEHEDMGIYYCLQCDEFPHTFGGGTKLEIK	26.2	21.6	27.5	25.2	27.7	3950	26.1	32.2	17.8	28.2
36-F4-H1-D9 (antibody, V domains shown, mouse monoclonal hybridoma antibody) VH: EVKLLESGGGLVQPGGSLKLSCAASGFDFSRYWMIWVRQAPEKGLEWIGEINPDSSTINYTPSLKDKFIISRDNAKNTLYLQMSKVRSEDTALYYCARPYYRYDVGYFDVWGAGTTVTVSS VL: DIVMTQAPKVLLVSAGDRVTISCKASQSVSNAVVWYQQKPGQSPKLLIFYASNRYTGVPDRFTGSGYGTDFTFSISTVQAEDLAVYFCQQDYSSPWTFGGGTKLEIK	20.7	16.5	22.1	18.6	25.7	898	23.5	26.5	17	20.3
44-F10-B6-D4 (antibody, V domains shown, mouse monoclonal hybridoma antibody) VH: EVHLVESGGGLVKPGGSLKLSCAASGFTFSSYAMSWVRQTPEKRLEWVATISSGGSYIYYPDSVKGRFTISRDNAKNTLYLQMSSLRSEDTAMYYCARQDWDGGDYYAMDYWGQGTSVTVSS VL: DIVMTQSPSSLAVSAGEKVTMSCKSSQSVLYSSNQKNFLAWYQQKPGQSPKLLIYWASTRESGVPDRFTGSGSGTDFTLTISSVQAEDLAVYYCHQYLSSLTFGAGTKLELK	24.4	24.8	25.6	22.5	38.4	84.9	31.6	38.2	26.6	26.8

Source: patent US20250361295A1 (ANTENGENE BIOLOGICS, published 2025)
